Data taken from the nanobody polyreactivity screen of Harvey et al. (2022).

experiment: yeast display, Sf9 membrane polyspecificity reagent, FACS + sequencing; frameworks hold sequencing errors
How it was run: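 Polyreactivity labels are assigned by the sorting gate from which each nanobody was recovered. The gates were low and high (top ~1%), set on anti-HA fluorescence for expression and streptavidin fluorescence for reagent binding. Before sorting, galactose-induced (36–48 hours) yeast display cells were stained for 1 hour at 4 °C with 10% biotinylated, detergent-solubilized Sf9 membrane reagent.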

Question: Which “polyreactivity (PSR sort gate)” value does the source give for “QVQLVESGGGLVQAGGSLRLSCAASGSIFDDYAMGWYRQAPGKERELVAAISWSGGSTYYADSVKGRFTISRDNAKNTVYLQINSLKPEDTAVYYCAKESGWVGAIHYDYWGQGTQVTVSS” here?
Answer: low polyreactivity

Question: For “QVQLVESGGGLVQAGGSLRLSCAASGSIFDDYAMGWYRQAPGKESELVAAITSGASTNYADSVKGRFTISRDNAKNTFSLQMNSLKPEDTAVYYCAADHDYFVNTDKFDDYWGQGTQVTVSS”, which “polyreactivity (PSR sort gate)” value is on record?
Answer: low polyreactivity

Question: With “QVQLVESGGGLVQAGGSLRLSCAASGSIFDDYAMGWYRQATGKERQLVAAISSSGTSTYYADSVKGRFTISRDNAKNTVYLQMNSLKPEDTAVYYCAARSAILKSGYLMDYWGQGTQVTVSS” as the sequence, how does the “polyreactivity (PSR sort gate)” value read?
Answer: low polyreactivity

Question: Which “polyreactivity (PSR sort gate)” value does the source give for “QVQLVESGGGLVQAGGSLRLSCAASGSIFDFYAMGWDRQAPGKERELVAAISGSGGSTYYADSVKGRFTISRDNAKNTVYLQMNSLKPEDTAVYYCNAATYRTRHSNNGYWGQGTQVTVSS” here?
Answer: low polyreactivity

Question: Which “polyreactivity (PSR sort gate)” value does the source give for “QVQLVESGGGLVQAGGSLRLSCAASGSIFDFYAMGWYRQAPGKERELVAAIDDIDDSTYYADSVKGRFTISRDNAKNTVYLQMNCLNPEDTAVYYCAAELRPGYRSSYGLIYDYWGQGTQVTVSS” here?
Answer: low polyreactivity

Question: With “QVQLVESGGGLVQAGGSLRLSCAASGSIFDFYAMGWYRQAPGKERELVAAITWSGDTTYYADSVKGRFTISRDNAKNTVYLQMNSLKPEDTAVYYCAAEGWYWWYGRDYYWGQGTQVTVSS” as the sequence, how does the “polyreactivity (PSR sort gate)” value read?
Answer: high polyreactivity

Question: For “QVQLVESGGGLVQAGGSLRLSCAASGSIFDFYGMGWYRQAPGKERELVATITGTGGGTYYADSVKGRFTISRDNAKNTVYLQMNSLKPEDTAVYYCAADYPYGYWRGLFYYWGHGTQVTVSS”, which “polyreactivity (PSR sort gate)” value is on record?
Answer: low polyreactivity

Question: Which “polyreactivity (PSR sort gate)” value does the source give for “QVQLVESGGGLVQAGGSLRLSCAASGSIFDGNAMGWYRQAPGKERELVASISDSGGSTYYADSVKGRFTISRDNAKNTVYLQMNSLKPEDTAVYYCAKVFVRFYDYYINYWGQGTQVTVSS” here?
Answer: low polyreactivity

Question: With “QVQLVESGGGLVQAGGSLRLSCAASGSIFDGNTMGWSRPAPGKERELVATIRWRGGRTYYADSVKGRFTISRDNAKNTVSLQMNSLKPEDTAVYYCNARWGYSRHRLMGYWGQGTQVTVSS” as the sequence, how does the “polyreactivity (PSR sort gate)” value read?
Answer: high polyreactivity

Question: For “QVQLVESGGGLVQAGGSLRLSCAASGSIFDGYAMGWYIQAPGKDRELVAAISGSGGITYYADSVKGRFTISRDNAKNTVYLPMNSLKPEDTAVYYCAADYSWYAGYGYWGQGTQVTVSS”, which “polyreactivity (PSR sort gate)” value is on record?
Answer: low polyreactivity

Question: For “QVQLVESGGGLVQAGGSLRLSCAASGSIFDGYAMRWYRQAPGKERELVAAIRWGDGITYYADSVKGRFTISRDIAKNTVYLLMNSLKPVDTAVYYCAAVQHGHEPRVQDSYDYWGQGTQVTVSS”, which “polyreactivity (PSR sort gate)” value is on record?
Answer: low polyreactivity

Question: With “QVQLVESGGGLVQAGGSLRLSCAASGSIFDHTNAMGWYRQAPGKERELVAAITSGSSTNYADSVKGRFTISRDNAKNTVYLQMNSLKPEDTAVYYCNADRFHSGIFDYWGQGTQVTVSS” as the sequence, how does the “polyreactivity (PSR sort gate)” value read?
Answer: low polyreactivity

Question: Which “polyreactivity (PSR sort gate)” value does the source give for “QVQLVESGGGLVQAGGSLRLSCAASGSIFDHYAMGWYRQAPGKERELVAAITAICDSTYYADSVKGRFTISRDNAKNTVYLEKNSLKAEDTAVYYCAVTYGGSDGGDYWGQGTQGTVSS” here?
Answer: low polyreactivity

Question: For “QVQLVESGGGLVQAGGSLRLSCAASGSIFDINAMGWYRQAPGKEREFVAAISWSGGTTYYADSVKGRFTISRDNAKNPVYLQMNSLKPEDTAVYYCAALSYVKRRQSYGYWGLGTQVTVSS”, which “polyreactivity (PSR sort gate)” value is on record?
Answer: high polyreactivity

Question: Which “polyreactivity (PSR sort gate)” value does the source give for “QVQLVESGGGLVQAGGSLRLSCAASGSIFDINAMGWYRQAPGKERELVAAISYGGGSTSYADSVKGRFTISRDNAKNTVYLQMNSLKPEDTAVYYCAAGYTQSPRDDSWGQGTQVTVSS” here?
Answer: low polyreactivity

Question: Which “polyreactivity (PSR sort gate)” value does the source give for “QVQLVESGGGLVQAGGSLRLSCAASGSIFDIYAMGGYRQAPGKERELVAGITRDDGSTYYADSVKGRFTISRDNAKNTVYLQMNSLNPEDTAVYYCNRPGDYPDYVPGYYYWGQGTQVTVSS” here?
Answer: low polyreactivity

Question: For “QVQLVESGGGLVQAGGSLRLSCAASGSIFDIYAMGWYRQAPGKERELVADITISGGSTYYADSVKGRFTISRDNAKNTVYLQMNSLKPEDTAVYYCKKAYLGYRYDLYDYWGQGTQVTVSS”, which “polyreactivity (PSR sort gate)” value is on record?
Answer: low polyreactivity

Question: Which “polyreactivity (PSR sort gate)” value does the source give for “QVQLVESGGGLVQAGGSLRLSCAASGSIFDIYAMGWYRQAPGKERELVASIRRRGGSTYYADSVKGRFTISRDNAKNTVYLQMNSLKPEDTAVYYCNARRVWLRTTGTNWPERGYWGQGTQVTVSS” here?
Answer: high polyreactivity

Question: With “QVQLVESGGGLVQAGGSLRLSCAASGSIFDIYGMGWYRQAPGKERELVASISGGAGSTNYADSVKGRFTISRDHAKNTVYLQMNSLKPEDTAVYYCAAEVYVPDYFQHKFDVEYEYWGQGTQVTVSS” as the sequence, how does the “polyreactivity (PSR sort gate)” value read?
Answer: low polyreactivity

Question: With “QVQLVESGGGLVQAGGSLRLSCAASGSIFDNAMGWYRQAPGKERELVAAISLSGSRTYYADSVKGRFTISRDNAKNTVYLQMNSLKPEDTAVYYCNTELVYYSTYDYWGQGTQVTVSS” as the sequence, how does the “polyreactivity (PSR sort gate)” value read?
Answer: low polyreactivity

Question: Which “polyreactivity (PSR sort gate)” value does the source give for “QVQLVESGGGLVQAGGSLRLSCAASGSIFDPNAMGWYRQAPGKEREFVAAISYGGGSTTYADSVKGRFTISRDNAKNTVYLQMNSLKPEDTAVYYCAAGFYTYPTWFHPGYLFSAGDYWGQGTQVTVSS” here?
Answer: low polyreactivity

Question: For “QVQLVESGGGLVQAGGSLRLSCAASGSIFDPNAMGWYRQAPGKERELVAAITSGGGSTYYADSVKGRFTISRDNAKNTVYLQMNSLNPEDTAVYYCNKVFVLPYKFVAWFDYWGQGTQVTVSS”, which “polyreactivity (PSR sort gate)” value is on record?
Answer: low polyreactivity

Question: Which “polyreactivity (PSR sort gate)” value does the source give for “QVQLVESGGGLVQAGGSLRLSCAASGSIFDPYAMGWYRQAPGKERELVAAINGGSGSTFYADSVKGRFTISRDNAKNTVYLQMNSLKPEDTAVYYCAAKIWRYSPSYYPEPRGDYWGQGTQVTVSS” here?
Answer: low polyreactivity

Question: Which “polyreactivity (PSR sort gate)” value does the source give for “QVQLVESGGGLVQAGGSLRLSCAASGSIFDPYAMGWYRQAPGKERELVAAITYSVGGTTYYADSVKGRFTISRDNAKNTVYLQMNSLKPEDTAVYYCAAEWWGNPFDYWGQGTQVTVSS” here?
Answer: high polyreactivity

Question: Which “polyreactivity (PSR sort gate)” value does the source give for “QVQLVESGGGLVQAGGSLRLSCAASGSIFDPYAMGWYRQAPRKERELVAAIRWSGTSTYYADSVMGRFTISRDNAKNTVYLQMNSLKPEDTAVYYCAARGSKGFSSPFGYWGQGTQLTVSS” here?
Answer: high polyreactivity

Question: For “QVQLVESGGGLVQAGGSLRLSCAASGSIFDQNAMVWYRQAPGKERELVAAITRGGSTKYADSVKGRFTISRDNAKNTVYLQMNSLKPEDTAVYYCARTARRRYQPYEYWGQGTQVTVSS”, which “polyreactivity (PSR sort gate)” value is on record?
Answer: low polyreactivity

Question: Which “polyreactivity (PSR sort gate)” value does the source give for “QVQLVESGGGLVQAGGSLRLSCAASGSIFDRYAMGWYRQAPGKERELVAAISKSGGRTYYADSVKGRLTISRDNAKNTVYLQMNSLKPEDTAVYYCAADPLLGYLSHYYWGQGTQVTVSS” here?
Answer: high polyreactivity

Question: For “QVQLVESGGGLVQAGGSLRLSCAASGSIFDRYAMGWYRQAPGKERELVAAISTGGSTNYADSVKGRFTISRDNAKNTVYLQMNSLKPEDTAVYYCAARYLYRMYYWGQGTQVTVSS”, which “polyreactivity (PSR sort gate)” value is on record?
Answer: low polyreactivity

Question: For “QVQLVESGGGLVQAGGSLRLSCAASGSIFDRYAMGWYRQAPGKERELVASIRQRGGSTYYADSVKGRFTISRDNAKNTVYLQMNSLKPEDTAVYYCAARKYPFRQSTYDYWGQGTQVTVSS”, which “polyreactivity (PSR sort gate)” value is on record?
Answer: low polyreactivity

Question: With “QVQLVESGGGLVQAGGSLRLSCAASGSIFDRYGMGLYRQAPGKETELVADITSDGSTNYADSLKGRFTISRDNAKNSVYLQMNSLKREDTAVYYCAVSYTAYYVGYDYWGQGTQVTVSS” as the sequence, how does the “polyreactivity (PSR sort gate)” value read?
Answer: low polyreactivity

Question: For “QVQLVESGGGLVQAGGSLRLSCAASGSIFDRYGMGWYRQAPGKERELVADITSDGSTNYADSVKGRFTISRDNAKNTVYLQMNSLKPEDTAVYYCAVSYTAYSVGYDYWGQGTQVTVSS”, which “polyreactivity (PSR sort gate)” value is on record?
Answer: low polyreactivity

Question: With “QVQLVESGGGLVQAGGSLRLSCAASGSIFDRYVMGWYRQAPGKERELVAAITTSGDGTYYADSVKGRFTISRDNAKNTVYLQMNSLKPEDTAVYYCAAVRRSWKYSTSDYWGQGTQVTVSS” as the sequence, how does the “polyreactivity (PSR sort gate)” value read?
Answer: low polyreactivity

Question: For “QVQLVESGGGLVQAGGSLRLSCAASGSIFDSYAMGWYRPEPGKERELVAAISSGGSTNYADSVKGRFTISRDNEKNTVYLQMNSLKPEDTAVYYCAADGSLDAYNYWGQGTQVTVSS”, which “polyreactivity (PSR sort gate)” value is on record?
Answer: low polyreactivity

Question: With “QVQLVESGGGLVQAGGSLRLSCAASGSIFDSYAMGWYRQAPGKERELVAAISWSGGSTYYADSVKGRFTISRDTAKNTVYLQMNSLKPDDTAVYYCNTDWADYYYYTDYDYWGQGTQLTVSS” as the sequence, how does the “polyreactivity (PSR sort gate)” value read?
Answer: high polyreactivity

Question: Which “polyreactivity (PSR sort gate)” value does the source give for “QVQLVESGGGLVQAGGSLRLSCAASGSIFDTNAMGWYIQAPGKEREFVGTITNSGGRTYYADSVKGRFTISRDNAKNTVYLQMNSLKPEDTAVYYCNADVHRFSGNGYRYYYWGQGTQVTVSS” here?
Answer: low polyreactivity

Question: Which “polyreactivity (PSR sort gate)” value does the source give for “QVQLVESGGGLVQAGGSLRLSCAASGSIFDTYAMGWYRQAPGKERELVAAITWSGSSTYYADSVKGRFTISRDNAKNTVYLQMNSLKPEDTAVYYCAKDYYVEVTTEYDYWGQGTQVTVSS” here?
Answer: high polyreactivity

Question: Which “polyreactivity (PSR sort gate)” value does the source give for “QVQLVESGGGLVQAGGSLRLSCAASGSIFDVNAMGWYRQAPGKERELVAAISQRGTRTYYADSVKGRFTISRDNAKNTVYLQMNSLKPEDTAVYYCNRGGWRQYDSWGQGTQVTVSS” here?
Answer: high polyreactivity

Question: For “QVQLVESGGGLVQAGGSLRLSCAASGSIFDVNAMGWYRQAPGKERELVAAISQRGTRTYYADSVKGRFTISRENAKNTVYLQMNSLKPEDTAVYYCNRGGWRQYDSWGQGTQVTVSS”, which “polyreactivity (PSR sort gate)” value is on record?
Answer: high polyreactivity

Question: For “QVQLVESGGGLVQAGGSLRLSCAASGSIFDVNTMGWYRQAPGKERELVAAITNGDRTNYADSVKGRFTISRDNAKNTVYLQMNSLKPEDTAVYYCAADSVLDRPVLYLWPWYLGDYWGQGTQVTVSS”, which “polyreactivity (PSR sort gate)” value is on record?
Answer: low polyreactivity

Question: With “QVQLVESGGGLVQAGGSLRLSCAASGSIFDVYDMGWYRQAPGKERELVASISDSGSSTYYADSVKGRFTISRDNAKNTVYLQMNSLKPEDTAVYYCAAGYYVDRSIYNYWGQGTQVTVSS” as the sequence, how does the “polyreactivity (PSR sort gate)” value read?
Answer: low polyreactivity

Question: With “QVQLVESGGGLVQAGGSLRLSCAASGSIFDWNAMGWYRQAPGKERELVAAIRRGGSTYYADSVKGRFTISRDNAKNTVYLQMNSLKPEDTAVYYCATRFYSRYYILDYDYWGQGTQLTVSS” as the sequence, how does the “polyreactivity (PSR sort gate)” value read?
Answer: high polyreactivity

Question: With “QVQLVESGGGLVQAGGSLRLSCAASGSIFDWNAMGWYRQAPGKERELVAAISGTGGTKYADSVKGRFTISRDNAKNTVYLQMISLKPEDTAVYYCAVGLVPLRDGWHFYYEFDSWGQGTQVTVSS” as the sequence, how does the “polyreactivity (PSR sort gate)” value read?
Answer: low polyreactivity

Question: With “QVQLVESGGGLVQAGGSLRLSCAASGSIFDWNSMGWYRQAPGKERELVATISWDGGSTYYADSVKGRFTISLDNAKNTVYLQMNSLKPEDTAVYYCATVFTGKPAYYARTKYDYWGQGTQVTVSS” as the sequence, how does the “polyreactivity (PSR sort gate)” value read?
Answer: low polyreactivity
